This note sets out measurements from paper PMC6393291 (Nucleic Acids Research, 2018).

This experiment deals with T1, MSL2-FLAG (D. melanogaster, UniProt P50534 1-773).
T1 sequence (looked up): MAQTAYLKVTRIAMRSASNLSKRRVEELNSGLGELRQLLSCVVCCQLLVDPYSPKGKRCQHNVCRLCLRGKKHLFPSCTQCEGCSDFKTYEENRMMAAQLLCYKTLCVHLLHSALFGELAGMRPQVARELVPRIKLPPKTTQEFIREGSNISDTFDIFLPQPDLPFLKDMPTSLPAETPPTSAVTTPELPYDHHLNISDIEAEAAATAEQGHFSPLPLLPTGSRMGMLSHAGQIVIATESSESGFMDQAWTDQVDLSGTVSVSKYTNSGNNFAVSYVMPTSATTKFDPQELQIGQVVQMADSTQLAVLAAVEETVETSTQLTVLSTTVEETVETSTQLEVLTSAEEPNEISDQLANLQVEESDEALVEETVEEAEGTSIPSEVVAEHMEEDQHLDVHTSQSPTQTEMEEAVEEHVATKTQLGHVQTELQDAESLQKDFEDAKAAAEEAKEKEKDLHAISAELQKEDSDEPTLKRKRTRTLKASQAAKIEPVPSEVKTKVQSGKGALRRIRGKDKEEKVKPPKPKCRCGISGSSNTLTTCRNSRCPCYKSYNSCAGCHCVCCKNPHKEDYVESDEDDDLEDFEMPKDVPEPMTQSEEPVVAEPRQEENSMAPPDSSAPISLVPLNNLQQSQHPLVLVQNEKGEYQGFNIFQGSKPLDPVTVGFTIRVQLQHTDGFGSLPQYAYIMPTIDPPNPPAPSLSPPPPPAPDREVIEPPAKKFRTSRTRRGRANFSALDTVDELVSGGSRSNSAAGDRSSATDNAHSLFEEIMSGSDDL
Kind of experiment: co-IP.

B1: CLAMP-FLAG (natural protein, D. melanogaster, UniProt Q9V9N4 1-561, looked up)
chain: MEDLTKNIIFTNAINGQPATIQYQTADGTILKQPKIEGQKTEQQPTFYYTTNGNGGTVNLAQLATTDDNKTCYIAQPVGGYNYALVNGMPLNQGAALGIATVDAQGRIQIVNQNKPIAANTISNISFKCDVCSDMFPHLALLNAHKRMHTDGEQQQQQQHNAQAGGDSIAVVSAQGLVQAQNIIGNGQMGQIQIVSSDTLEPVQQSVMQQQQHESKASKCINCGSSMLQQSKRKGPKQVRCESCMQAEQTAQQQQQLFVAQDGQMAHPVQIISTTPQAQAQLQQIVAAQTGGTTPKREASSGSGHHPVKKRNSQQMTKCQKCNGSGVVLVGQHSHASHSGVGGSVKQSVTVKTENPSKPFSCNICGGLFSRYSSLWSHKKLHSGEKNYKCSICGLAFAKAVYLKNHARIHTGEKPYKCQTCGMQFSQSPHLKNHERTHSGERPYVCGVCDKGFARHATLWNHRRIHTGEKPYKCEICGSAFSQAAHLKNHAKVHSGEKPYKCEICSAAFADRFALKRHRGIHQKYGQTAPRQTSSDGMIVHKQEIPDMEDEAQQEVIIGGL
B1: the binding result is on record as “binds”.
